T1: DQA1*0102/DQB1*0602 (human, UniProt P01920 33-230, limits assumed)
T1 construct: human MHC class II allotype
T1 MHC II alpha: not shown
T1 MHC II beta: not shown


biological target: T2, HLA-DRB1*0701 (human); assay: competitive MHC class II binding assay
T2 construct: human MHC class II allotype

Binding result, no binding:
IDLKGELDMRNIQVR [HDM32A]
PNVNKIREALAQT [HDM07]
RTIIQRDNGYQPNY (solubility test: NO) [HDM13]
EYIQHNGVVQESY [HDM05]
KVLAPAFKKELER [HDM50]
ANVKSEDGVVKAH [HDM37]
IGIKDLDAFRHYD [HDM11]
KDLDAFRHYDGRT [HDM12]
KSETFDPMKVPDHSD [HDM29B]
HIGIIDLKGELDMRN [HDM31A]
IGIIDLKGELDMRN [HDM31]
RNSWDTNWGDNGYG [HDM16A]
KRVGDANVKSEDG [HDM36]
NKIREALAQTHSA [HDM08]

biological target: T3, HLA-DRB1*1101 (human); assay: competitive MHC class II binding assay
T3 construct: human MHC class II allotype

Binding result, no binding:
IDLKGELDMRNIQVR [HDM32A]
PNVNKIREALAQT [HDM07]
RTIIQRDNGYQPNY (solubility test: NO) [HDM13]
EYIQHNGVVQESY [HDM05]
KVLAPAFKKELER [HDM50]
ANVKSEDGVVKAH [HDM37]
IGIKDLDAFRHYD [HDM11]
KDLDAFRHYDGRT [HDM12]
KSETFDPMKVPDHSD [HDM29B]
HIGIIDLKGELDMRN [HDM31A]
IGIIDLKGELDMRN [HDM31]
RNSWDTNWGDNGYG [HDM16A]
KRVGDANVKSEDG [HDM36]
NKIREALAQTHSA [HDM08]

Biological target: T1, DQA1*0102/DQB1*0602
Assay: competitive MHC class II binding assay

Binding result, no binding:
IDLKGELDMRNIQVR [HDM32A]
PNVNKIREALAQT [HDM07]
RTIIQRDNGYQPNY (solubility test: NO) [HDM13]
EYIQHNGVVQESY [HDM05]
KVLAPAFKKELER [HDM50]
ANVKSEDGVVKAH [HDM37]
IGIKDLDAFRHYD [HDM11]
KDLDAFRHYDGRT [HDM12]
KSETFDPMKVPDHSD [HDM29B]
HIGIIDLKGELDMRN [HDM31A]
IGIIDLKGELDMRN [HDM31]
RNSWDTNWGDNGYG [HDM16A]
KRVGDANVKSEDG [HDM36]
NKIREALAQTHSA [HDM08]

biological target: T4, HLA-DRB1*0301 (human); assay: competitive MHC class II binding assay
T4 construct: human MHC class II allotype

Binding result, no binding:
IDLKGELDMRNIQVR [HDM32A]
PNVNKIREALAQT [HDM07]
RTIIQRDNGYQPNY (solubility test: NO) [HDM13]
EYIQHNGVVQESY [HDM05]
KVLAPAFKKELER [HDM50]
ANVKSEDGVVKAH [HDM37]
IGIKDLDAFRHYD [HDM11]
KDLDAFRHYDGRT [HDM12]
KSETFDPMKVPDHSD [HDM29B]
HIGIIDLKGELDMRN [HDM31A]
IGIIDLKGELDMRN [HDM31]
RNSWDTNWGDNGYG [HDM16A]
KRVGDANVKSEDG [HDM36]
NKIREALAQTHSA [HDM08]

biological target: T5, HLA-DRB1*0401 (human); assay: competitive MHC class II binding assay
T5 construct: human MHC class II allotype

Binding result, no binding:
IDLKGELDMRNIQVR [HDM32A]
PNVNKIREALAQT [HDM07]
RTIIQRDNGYQPNY (solubility test: NO) [HDM13]
EYIQHNGVVQESY [HDM05]
KVLAPAFKKELER [HDM50]
ANVKSEDGVVKAH [HDM37]
IGIKDLDAFRHYD [HDM11]
KDLDAFRHYDGRT [HDM12]
KSETFDPMKVPDHSD [HDM29B]
HIGIIDLKGELDMRN [HDM31A]
IGIIDLKGELDMRN [HDM31]
RNSWDTNWGDNGYG [HDM16A]
KRVGDANVKSEDG [HDM36]
NKIREALAQTHSA [HDM08]

biological target: T6, HLA-DRB1*1501 (human); assay: competitive MHC class II binding assay
T6 construct: human MHC class II allotype

Binding result, no binding:
IDLKGELDMRNIQVR [HDM32A]
PNVNKIREALAQT [HDM07]
RTIIQRDNGYQPNY (solubility test: NO) [HDM13]
EYIQHNGVVQESY [HDM05]
KVLAPAFKKELER [HDM50]
ANVKSEDGVVKAH [HDM37]
IGIKDLDAFRHYD [HDM11]
KDLDAFRHYDGRT [HDM12]
KSETFDPMKVPDHSD [HDM29B]
HIGIIDLKGELDMRN [HDM31A]
IGIIDLKGELDMRN [HDM31]
RNSWDTNWGDNGYG [HDM16A]
KRVGDANVKSEDG [HDM36]
NKIREALAQTHSA [HDM08]

biological target: T7, HLA-DRB1*1301 (human); assay: competitive MHC class II binding assay
T7 construct: human MHC class II allotype

Binding result, no binding:
IDLKGELDMRNIQVR [HDM32A]
PNVNKIREALAQT [HDM07]
RTIIQRDNGYQPNY (solubility test: NO) [HDM13]
EYIQHNGVVQESY [HDM05]
KVLAPAFKKELER [HDM50]
ANVKSEDGVVKAH [HDM37]
IGIKDLDAFRHYD [HDM11]
KDLDAFRHYDGRT [HDM12]
KSETFDPMKVPDHSD [HDM29B]
HIGIIDLKGELDMRN [HDM31A]
IGIIDLKGELDMRN [HDM31]
RNSWDTNWGDNGYG [HDM16A]
KRVGDANVKSEDG [HDM36]
NKIREALAQTHSA [HDM08]

biological target: T8, HLA-DRB1*0101 (human); assay: competitive MHC class II binding assay
T8 construct: human MHC class II allotype

Binding result, no binding:
IDLKGELDMRNIQVR [HDM32A]
PNVNKIREALAQT [HDM07]
RTIIQRDNGYQPNY (solubility test: NO) [HDM13]
EYIQHNGVVQESY [HDM05]
KVLAPAFKKELER [HDM50]
ANVKSEDGVVKAH [HDM37]
IGIKDLDAFRHYD [HDM11]
KDLDAFRHYDGRT [HDM12]
KSETFDPMKVPDHSD [HDM29B]
HIGIIDLKGELDMRN [HDM31A]
IGIIDLKGELDMRN [HDM31]
RNSWDTNWGDNGYG [HDM16A]
KRVGDANVKSEDG [HDM36]
NKIREALAQTHSA [HDM08]
